Experimental data taken from the supplement of paper PMC10065799, “High-throughput profiling of sequence recognition by tyrosine kinases and SH2 domains using bacterial peptide display” (eLife, 2023).

How the values were obtained:
AncSZ = test: phosphorylation enrichment, bacterial display (enrichment ratio); higher = better substrate or ligand; peptides without Tyr show the background
EPHB1 = EPHB1 (UniProt P54762); test: as above
EPHB2 = EPHB2 (UniProt P29323); test: as above
FGFR1 = FGFR1 (UniProt P11362); test: as above
FGFR3 = FGFR3 (UniProt P22607); test: as above
Fer (mouse) = test: as above
Fes = Fes (UniProt P07332); test: as above
Fyn = Fyn (UniProt P06241); test: as above
Hck = Hck (UniProt P08631); test: as above
Jak2 = Jak2 (UniProt O60674); test: as above
MERTK = MERTK (UniProt Q12866); test: as above
c-Abl (mouse) = test: as above
c-Src = test: as above
Grb2 SH2 = Grb2 SH2 (UniProt P62993); test: SH2 binding enrichment of the phosphorylated peptide, bacterial display (enrichment ratio); higher = better substrate or ligand; peptides without Tyr show the background
SHP2-C SH2 = test: as above
c-Src SH2 = test: as above
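Wherever SH2 binding enrichment of the phosphorylated peptide, bacterial display is given: peptide library displayed on the E. coli surface as eCPX fusions, selected cells deep-sequenced, score is each peptide's frequency after selection divided by its frequency in the input.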
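Wherever phosphorylation enrichment, bacterial display is given: 11-residue human phosphosite peptides and single-mutation variants displayed on the E. coli surface, counted by deep sequencing, each peptide's frequency after selection divided by its frequency in the unselected input library; frequency after pTyr selection over input frequency; kinase dosed for 20-30% of maximal phosphorylation in three min.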

Fyn, sequence (P06241 whole entry, looked up): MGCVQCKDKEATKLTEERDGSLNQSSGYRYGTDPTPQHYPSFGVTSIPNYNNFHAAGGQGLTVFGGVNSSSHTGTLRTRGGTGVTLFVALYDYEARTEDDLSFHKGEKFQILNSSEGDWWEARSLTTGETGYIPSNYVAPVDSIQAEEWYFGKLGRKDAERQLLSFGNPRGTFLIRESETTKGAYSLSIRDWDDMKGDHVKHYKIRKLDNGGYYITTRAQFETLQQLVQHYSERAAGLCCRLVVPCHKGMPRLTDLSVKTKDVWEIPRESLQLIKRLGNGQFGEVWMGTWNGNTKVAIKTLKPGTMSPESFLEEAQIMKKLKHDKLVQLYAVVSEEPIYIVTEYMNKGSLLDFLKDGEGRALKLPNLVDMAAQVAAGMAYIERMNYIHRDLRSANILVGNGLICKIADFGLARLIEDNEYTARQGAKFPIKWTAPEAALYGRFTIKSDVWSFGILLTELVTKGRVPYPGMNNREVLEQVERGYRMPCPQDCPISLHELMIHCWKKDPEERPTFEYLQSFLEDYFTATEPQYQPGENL
EPHB2, sequence (P29323 whole entry, looked up): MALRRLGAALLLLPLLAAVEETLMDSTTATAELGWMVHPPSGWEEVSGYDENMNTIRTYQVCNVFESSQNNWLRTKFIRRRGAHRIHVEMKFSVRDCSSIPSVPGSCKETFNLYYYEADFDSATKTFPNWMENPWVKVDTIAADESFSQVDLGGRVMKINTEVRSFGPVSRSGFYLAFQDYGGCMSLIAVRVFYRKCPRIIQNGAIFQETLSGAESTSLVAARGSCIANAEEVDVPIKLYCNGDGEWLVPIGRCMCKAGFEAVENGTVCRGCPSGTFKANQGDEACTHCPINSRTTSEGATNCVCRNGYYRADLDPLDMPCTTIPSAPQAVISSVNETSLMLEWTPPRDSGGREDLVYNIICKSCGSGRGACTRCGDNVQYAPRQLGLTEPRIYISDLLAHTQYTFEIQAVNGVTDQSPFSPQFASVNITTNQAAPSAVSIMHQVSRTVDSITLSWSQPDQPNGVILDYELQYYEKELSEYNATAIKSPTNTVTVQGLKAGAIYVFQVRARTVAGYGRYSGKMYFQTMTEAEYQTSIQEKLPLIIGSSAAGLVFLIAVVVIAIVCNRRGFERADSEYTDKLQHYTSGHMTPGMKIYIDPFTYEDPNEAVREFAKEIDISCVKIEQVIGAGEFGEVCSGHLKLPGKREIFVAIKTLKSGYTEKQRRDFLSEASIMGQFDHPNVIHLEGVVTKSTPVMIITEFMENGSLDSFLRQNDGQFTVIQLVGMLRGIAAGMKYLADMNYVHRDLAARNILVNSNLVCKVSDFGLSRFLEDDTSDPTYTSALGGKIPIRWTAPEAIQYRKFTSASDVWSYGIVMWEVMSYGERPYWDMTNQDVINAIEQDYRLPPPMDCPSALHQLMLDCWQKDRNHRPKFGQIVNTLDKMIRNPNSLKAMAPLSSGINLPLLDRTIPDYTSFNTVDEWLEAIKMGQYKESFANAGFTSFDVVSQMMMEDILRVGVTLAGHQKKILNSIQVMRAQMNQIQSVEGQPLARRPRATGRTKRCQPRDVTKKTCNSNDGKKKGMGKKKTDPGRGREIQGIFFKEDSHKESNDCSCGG
Fes, sequence (P07332 whole entry, looked up): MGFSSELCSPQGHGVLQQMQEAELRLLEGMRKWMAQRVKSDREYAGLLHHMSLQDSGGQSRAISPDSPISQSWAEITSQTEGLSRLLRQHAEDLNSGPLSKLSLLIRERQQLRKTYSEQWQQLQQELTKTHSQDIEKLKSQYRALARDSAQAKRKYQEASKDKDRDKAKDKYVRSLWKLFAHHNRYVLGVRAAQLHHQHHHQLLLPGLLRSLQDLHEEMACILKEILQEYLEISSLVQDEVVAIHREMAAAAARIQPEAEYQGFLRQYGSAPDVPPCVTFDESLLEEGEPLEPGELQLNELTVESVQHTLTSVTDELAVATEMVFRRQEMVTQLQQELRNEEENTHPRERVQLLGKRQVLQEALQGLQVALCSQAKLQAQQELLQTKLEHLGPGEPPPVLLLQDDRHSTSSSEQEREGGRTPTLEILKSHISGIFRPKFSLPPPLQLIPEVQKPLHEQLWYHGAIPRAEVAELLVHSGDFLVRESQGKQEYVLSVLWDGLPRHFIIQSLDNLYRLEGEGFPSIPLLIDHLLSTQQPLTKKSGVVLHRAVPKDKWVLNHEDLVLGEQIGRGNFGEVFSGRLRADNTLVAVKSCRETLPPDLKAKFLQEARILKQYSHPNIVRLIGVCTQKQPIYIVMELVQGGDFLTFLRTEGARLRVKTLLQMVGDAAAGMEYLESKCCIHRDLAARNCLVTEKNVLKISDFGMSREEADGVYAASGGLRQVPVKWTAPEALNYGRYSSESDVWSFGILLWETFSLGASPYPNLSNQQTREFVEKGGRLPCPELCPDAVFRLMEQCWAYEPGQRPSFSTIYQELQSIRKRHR
Jak2, sequence (O60674 whole entry, looked up): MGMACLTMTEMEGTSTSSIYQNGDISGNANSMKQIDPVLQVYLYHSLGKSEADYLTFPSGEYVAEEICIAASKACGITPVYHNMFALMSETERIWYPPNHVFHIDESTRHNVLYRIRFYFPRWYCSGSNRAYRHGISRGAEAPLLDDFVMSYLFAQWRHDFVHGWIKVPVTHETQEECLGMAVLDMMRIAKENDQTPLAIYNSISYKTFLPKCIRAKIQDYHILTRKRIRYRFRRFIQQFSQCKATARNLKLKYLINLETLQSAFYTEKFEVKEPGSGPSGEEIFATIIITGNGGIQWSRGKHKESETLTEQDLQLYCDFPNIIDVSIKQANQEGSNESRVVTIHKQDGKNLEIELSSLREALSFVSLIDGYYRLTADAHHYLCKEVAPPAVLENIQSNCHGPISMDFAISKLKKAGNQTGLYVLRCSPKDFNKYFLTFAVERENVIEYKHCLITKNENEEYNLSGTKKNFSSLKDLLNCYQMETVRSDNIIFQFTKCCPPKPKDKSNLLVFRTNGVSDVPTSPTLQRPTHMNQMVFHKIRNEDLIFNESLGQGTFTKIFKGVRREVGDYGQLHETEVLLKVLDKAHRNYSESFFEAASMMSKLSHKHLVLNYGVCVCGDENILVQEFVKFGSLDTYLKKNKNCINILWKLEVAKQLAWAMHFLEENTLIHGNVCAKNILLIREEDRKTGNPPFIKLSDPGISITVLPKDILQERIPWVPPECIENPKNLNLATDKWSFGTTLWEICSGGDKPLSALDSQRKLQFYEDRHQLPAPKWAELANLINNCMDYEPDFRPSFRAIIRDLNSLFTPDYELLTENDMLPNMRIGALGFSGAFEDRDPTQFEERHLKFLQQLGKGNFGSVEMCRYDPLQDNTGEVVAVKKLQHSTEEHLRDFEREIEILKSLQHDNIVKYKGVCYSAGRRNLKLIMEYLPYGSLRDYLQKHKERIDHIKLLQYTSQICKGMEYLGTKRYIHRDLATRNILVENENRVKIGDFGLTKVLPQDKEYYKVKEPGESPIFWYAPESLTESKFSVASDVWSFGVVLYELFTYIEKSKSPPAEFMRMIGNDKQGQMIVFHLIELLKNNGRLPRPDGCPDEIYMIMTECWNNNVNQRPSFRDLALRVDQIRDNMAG
MERTK, sequence (Q12866 whole entry, looked up): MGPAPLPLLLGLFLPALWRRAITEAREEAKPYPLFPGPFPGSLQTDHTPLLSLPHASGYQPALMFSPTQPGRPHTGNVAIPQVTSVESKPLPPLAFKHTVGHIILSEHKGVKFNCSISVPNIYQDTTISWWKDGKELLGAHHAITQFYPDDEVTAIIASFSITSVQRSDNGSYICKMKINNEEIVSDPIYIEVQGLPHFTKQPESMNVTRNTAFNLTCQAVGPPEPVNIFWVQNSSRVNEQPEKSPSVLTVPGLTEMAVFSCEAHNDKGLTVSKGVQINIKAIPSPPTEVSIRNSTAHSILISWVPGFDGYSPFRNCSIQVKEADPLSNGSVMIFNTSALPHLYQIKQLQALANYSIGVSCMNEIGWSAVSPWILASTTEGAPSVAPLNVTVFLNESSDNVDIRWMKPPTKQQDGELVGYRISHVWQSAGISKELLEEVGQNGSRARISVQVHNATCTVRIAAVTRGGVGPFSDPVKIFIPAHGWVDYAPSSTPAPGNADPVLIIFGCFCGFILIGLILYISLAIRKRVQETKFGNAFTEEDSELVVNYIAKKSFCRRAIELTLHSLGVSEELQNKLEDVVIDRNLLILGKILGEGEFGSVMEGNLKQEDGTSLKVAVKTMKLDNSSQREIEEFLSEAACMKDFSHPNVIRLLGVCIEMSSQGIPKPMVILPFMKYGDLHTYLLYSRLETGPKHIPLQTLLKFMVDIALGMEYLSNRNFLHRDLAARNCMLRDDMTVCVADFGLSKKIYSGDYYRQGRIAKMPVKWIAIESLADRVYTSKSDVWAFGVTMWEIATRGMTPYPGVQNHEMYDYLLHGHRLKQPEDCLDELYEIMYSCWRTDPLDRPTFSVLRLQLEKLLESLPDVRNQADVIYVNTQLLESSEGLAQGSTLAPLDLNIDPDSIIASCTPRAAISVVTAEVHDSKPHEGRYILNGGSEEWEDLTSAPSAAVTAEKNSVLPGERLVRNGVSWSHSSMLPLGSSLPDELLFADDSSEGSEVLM
Grb2 SH2, sequence (P62993 whole entry, looked up): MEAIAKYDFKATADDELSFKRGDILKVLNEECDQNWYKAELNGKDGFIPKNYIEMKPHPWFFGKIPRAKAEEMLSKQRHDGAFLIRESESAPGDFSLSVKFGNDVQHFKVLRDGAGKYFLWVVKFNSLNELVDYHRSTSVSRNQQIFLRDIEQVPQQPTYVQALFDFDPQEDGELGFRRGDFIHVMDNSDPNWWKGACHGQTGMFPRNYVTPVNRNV

Row | Sequence | phosphorylation enrichment (AncSZ) | phosphorylation enrichment (EPHB1) | phosphorylation enrichment (EPHB2) | phosphorylation enrichment (FGFR1) | phosphorylation enrichment (FGFR3) | phosphorylation enrichment (Fer (mouse)) | phosphorylation enrichment (Fes) | phosphorylation enrichment (Fyn) | phosphorylation enrichment (Hck) | phosphorylation enrichment (Jak2) | phosphorylation enrichment (MERTK) | phosphorylation enrichment (c-Abl (mouse)) | phosphorylation enrichment (c-Src) | SH2 binding enrichment (Grb2 SH2) | SH2 binding enrichment (SHP2-C SH2) | SH2 binding enrichment (c-Src SH2)
1 | KDLPNYNWNSF [KISS1_Y112] | 0.904 | 0.505 | 0.63 | 0.432 | 0.521 | 0.604 | 0.855 | 0.446 | 0.416 | 0.767 | 0.491 | 0.639 | 0.507 | 0.769 | 0.441 | 0.459
2 | KEINDYVEKGT [SERPINA1_Y184_Q180E] | 1.21 | 0.513 | 0.56 | 0.558 | 0.632 | 0.492 | 0.954 | 0.514 | 0.515 | 0.75 | 0.439 | 0.621 | 0.517 | 0.981 | 0.568 | 0.461
3 | KELALYDENWF [RPS19_Y48_P47L] | 1.5 | 8.19 | 11.5 | 0.729 | 0.947 | 7.67 | 1.43 | 1.02 | 1.41 | 1.44 | 7.19 | 1.06 | 1.39 | 0.834 | 0.611 | 0.456
4 | KGPGEYVNIEF [IRS1_Y896_S892G] | 0.958 | 0.708 | 0.639 | 1.43 | 1.14 | 0.475 | 0.79 | 0.58 | 0.498 | 0.691 | 0.442 | 0.493 | 0.484 | 4.8 | 1.22 | 5.64
5 | KHCEDYVFSYN [DSC1_Y846_C848F] | 2.06 | 0.855 | 0.719 | 2.41 | 1.98 | 0.511 | 1.31 | 0.576 | 0.521 | 1.08 | 0.489 | 0.778 | 1.77 | 0.806 | 0.595 | 0.552
6 | KKARAYRPGIE [FLNA_Y287_G288R] | 0.499 | 0.289 | 0.417 | 0.299 | 0.357 | 0.31 | 0.45 | 0.338 | 0.323 | 0.565 | 0.371 | 0.455 | 0.449 | 0.761 | 0.606 | 0.469
7 | KKCTTYIDCDL [ASPA_Y64_R63T] | 0.975 | 0.48 | 0.474 | 0.571 | 0.665 | 0.713 | 1.14 | 0.42 | 0.491 | 0.81 | 0.391 | 0.601 | 0.415 | 0.883 | 0.826 | 0.703
8 | KKDGPYDVVVL [PARK7_Y67_E64D] | 0.906 | 0.991 | 0.53 | 0.449 | 0.602 | 3.37 | 0.9 | 0.562 | 0.507 | 0.608 | 0.589 | 0.629 | 0.569 | 0.855 | 0.895 | 1.07
9 | KKFPDYIQSAM [SGMS2_Y59_I62S_YF] | 0.621 | 0.348 | 0.424 | 0.479 | 0.471 | 0.332 | 0.65 | 0.401 | 0.482 | 0.512 | 0.364 | 0.472 | 0.521 | 0.821 | 0.694 | 0.532
10 | KKGIVYVFNGR [ITGAV_Y404_I405V] | 0.756 | 0.458 | 0.449 | 0.527 | 0.538 | 0.441 | 0.677 | 0.477 | 0.486 | 0.73 | 0.48 | 0.443 | 0.395 | 2.05 | 1.91 | 1.32
11 | KLFYIYTSGTT [SLC27A4_Y245] | 1.24 | 0.61 | 0.727 | 0.449 | 0.755 | 0.556 | 1.37 | 0.455 | 0.506 | 1.51 | 0.5 | 0.767 | 0.575 | 0.943 | 1.34 | 0.53
12 | KLGDVYVNDAF [PGK1_Y161] | 0.734 | 0.467 | 0.571 | 0.557 | 0.63 | 0.547 | 0.86 | 0.552 | 0.488 | 0.801 | 0.395 | 0.574 | 0.423 | 2.38 | 0.729 | 1.39
13 | KLIETCFSKNY [PLP1_Y50_Y50C] | 1.07 | 0.576 | 0.555 | 0.473 | 0.739 | 0.47 | 1.38 | 0.456 | 0.621 | 1.13 | 0.474 | 0.973 | 0.524 | 0.748 | 0.652 | 0.447
14 | KLKRSYPSPDI [USP8_Y717_S718P] | 0.436 | 0.374 | 0.291 | 0.352 | 0.411 | 0.339 | 0.546 | 0.374 | 0.381 | 0.58 | 0.467 | 0.547 | 0.469 | 0.773 | 0.723 | 0.378
15 | KLLLKYSFHDV [RNF213_Y4141] | 1.27 | 0.56 | 0.598 | 0.439 | 0.808 | 0.537 | 1.31 | 0.418 | 0.506 | 1.57 | 0.4 | 0.878 | 0.436 | 1.15 | 1.04 | 0.851
16 | KLPYLYDDPFS [GPX2_Y127_P126L] | 1.22 | 3.22 | 4.17 | 0.489 | 0.689 | 1.28 | 1.3 | 0.695 | 1.46 | 0.997 | 2.58 | 1.12 | 0.906 | 0.765 | 0.797 | 2.42
17 | KLQKKYGPIFS [CYP17A1_Y60_YF] | 0.555 | 0.377 | 0.39 | 0.308 | 0.415 | 0.324 | 0.503 | 0.38 | 0.383 | 0.583 | 0.39 | 0.505 | 0.489 | 0.882 | 0.754 | 0.461
18 | KLQKKYGPIYS [CYP17A1_Y60] | 0.433 | 0.361 | 0.351 | 0.318 | 0.438 | 0.39 | 0.468 | 1.59 | 2.26 | 0.378 | 0.422 | 0.451 | 1.17 | 1.01 | 0.819 | 0.588
19 | KLQKYYRKNPD [EHHADH_Y683_Q685K] | 0.399 | 0.353 | 0.415 | 0.311 | 0.332 | 0.283 | 0.501 | 0.359 | 0.341 | 0.486 | 0.369 | 0.394 | 0.275 | 0.905 | 0.604 | 0.597
20 | KLQKYYRQNPD [EHHADH_Y683] | 0.565 | 0.765 | 0.464 | 0.413 | 0.419 | 0.417 | 0.591 | 0.348 | 0.448 | 0.474 | 0.371 | 0.482 | 0.42 | 0.948 | 0.694 | 0.503
21 | KMGNIYRTEYG [MRPL3_Y265] | 0.621 | 0.488 | 0.373 | 0.413 | 0.526 | 0.334 | 0.701 | 0.475 | 0.477 | 0.577 | 0.539 | 0.496 | 0.536 | 0.884 | 0.73 | 0.529
22 | KMLEKYKERLN [TLK2_Y259] | 0.634 | 0.381 | 0.5 | 0.46 | 0.557 | 0.444 | 0.789 | 0.43 | 0.492 | 0.834 | 0.475 | 1.27 | 0.463 | 0.838 | 0.641 | 0.693
23 | KNEVLYDGENH [ARFGEF1_Y314] | 0.943 | 0.403 | 0.525 | 0.399 | 0.475 | 0.401 | 0.836 | 0.422 | 0.436 | 0.763 | 0.398 | 0.668 | 0.418 | 0.978 | 0.687 | 0.665
24 | KNKKDYFDMFE [SLC26A3_Y526_YF] | 0.864 | 0.779 | 0.585 | 3.49 | 2.62 | 0.418 | 0.909 | 0.453 | 0.444 | 0.706 | 0.568 | 0.882 | 0.524 | 0.979 | 1.01 | 0.595
25 | KNRDVYSSDYF [USP24_Y2134] | 1.1 | 3.39 | 4.03 | 2.07 | 1.15 | 0.495 | 0.944 | 1.19 | 1 | 0.945 | 5.77 | 0.656 | 2.67 | 0.796 | 0.739 | 0.644
26 | KNSFKYFMSDD [ATRX_Y203_C200S_YF] | 0.856 | 0.475 | 0.55 | 0.416 | 0.638 | 0.412 | 1.02 | 0.392 | 0.478 | 0.869 | 0.418 | 0.628 | 0.425 | 0.942 | 0.587 | 0.556
27 | KPGLKYVTYGN [GALNTL5_Y404] | 0.505 | 0.38 | 0.624 | 0.394 | 0.409 | 0.379 | 0.547 | 0.39 | 0.484 | 0.498 | 0.345 | 0.389 | 0.363 | 1.34 | 2.11 | 1.11
28 | KPGLVYNKVNP [SPRED3_Y72] | 0.704 | 0.413 | 0.395 | 0.383 | 0.453 | 0.409 | 0.595 | 0.424 | 0.603 | 0.936 | 0.402 | 0.675 | 0.539 | 0.951 | 0.788 | 0.815
29 | KPLMPYMRFSR [SMARCE1_Y73_YF] | 1.3 | 0.385 | 0.464 | 0.466 | 0.547 | 0.352 | 0.872 | 0.591 | 0.493 | 0.843 | 0.479 | 0.99 | 0.508 | 0.838 | 0.831 | 0.412
